Measured values reported in patent publication US20190309288A1, “TARGETED MUTAGENESIS” (THE BOARD OF TRUSTEES OF THE LELAND STANFORD JUNIOR …, priority 2016, published 2019).
Residue numbers refer to the chain shown, from its start. Numbers in names are those of the source.

B1: R78N: PSMB5 variant, chr14: 23033640 C > A/T (protein, UniProt P28074 60-263, looked up, variant R78N)
Proteasome subunit beta type-5: TTTLAFKFRHGVIVAADSNATAGAYIASQTVKKVIEINPYLLGTMAGGAADCSFWERLLARQCRIYELRNKERISVAAASKLLANMVYQYKGMGLSMGTMICGWDKRGPGLYYVDSEGNRISGATFSVGSGSVYAYGVMDRGYSYDLEVEQAYDLARRAIYQATYRDAYSGGAVNLYHVREDGWIRVSSDNVADLHEKYSGSTP
B2: L11L: PSMB5 synonymous mutation in exon 1, chr14: 23034851 G > A (protein, UniProt P28074 60-263, looked up)
Proteasome subunit beta type-5: B1 Proteasome subunit beta type-5 with N19R
modifications: synonymous mutation L11L
notes: PSMB5 synonymous mutation in exon 1, chr14: 23034851 G > A
B3: G82D: PSMB5 variant, chr14: 23033628 C > T (protein, UniProt P28074 60-263, looked up, variant G82D)
Proteasome subunit beta type-5: B1 Proteasome subunit beta type-5 with N19R, G23D
B4: A108V: PSMB5 variant, chr14: 23033550 G > A; residue known to be involved in binding bortezomib (protein, UniProt P28074 60-263, looked up, variant A108V)
Proteasome subunit beta type-5: B1 Proteasome subunit beta type-5 with N19R, A49V
B5: G242D: PSMB5 variant in exon 4, chr14: 23026156 C > T (protein, UniProt P28074 60-263, looked up, variant G242D)
Proteasome subunit beta type-5: B1 Proteasome subunit beta type-5 with N19R, G183D

Experiments:
GFP and mCherry = test: Simultaneous mutation of two loci, flow cytometry; assay type: cell-based; conditions: cells expressing dCas9, MS2-AID*Δ
Procedure: Scatter plots were generated in FlowJo.
Independent mutagenesis at multiple locations is typically not possible with traditional directed evolution experiments. However, the CRISPR/Cas9 system can target multiple loci using different sgRNAs (26, 27). Accordingly, experiments were conducted using two guides, one targeting GFP (sgGFP.10) and the other targeting mCherry (sgmCherry.1), both individually and in combination.

GFP = conditions: cells expressing dCas9, MS2-AID*Δ, mCherry, sgRNA individually
Procedure: (§1) Lentiviral production as well as infection and culturing of K562 cells (ATCC) were performed as described (45). Parental K562 cell lines were generated by infecting dCas9-Blast (pGH125) followed by blasticidin selection (10 μg/mL, Gibco) for 7 days. Cells were subsequently infected with both GFP (pGH045) and mCherry (pGH044) expression vectors or with a wtGFP (pGH220) expression vector and sorted via FACS for fluorescence. These cell lines were used as the parental samples in the sequencing assays. For experiments using an integrated construct, cells were infected with MS2-AID (pGH153, 156, 183, and 335) expressing vectors followed by selection with hygromycin B (200 μg/mL, Life Technologies) for 7 days. All cell lines were maintained in a humidified incubator (37° C., 5% CO2), and checked regularly for mycoplasma contamination.
(§2) Nucleofection of K562 cells was performed as described (46). 1 million K562 cells were harvested for each electroporation. Cells were centrifuged at 300×g for 5 minutes and resuspended in 100 μL of nucleofection solution and mixed with plasmid DNA (5 μg MS2-AID expressing plasmid and 5 μg sgRNA expression vector) and loaded into a 2 mm cuvette (VWR). Electroporations were performed using the T-016 program on the Lonza Nucleofector 2b. After electroporation, cells were rescued in warm, supplemented RPMI media.

mCherry = mCherry fluorescence by flow cytometry as proxy for off-target mutation; assay type: cell-based; conditions: cells expressing dCas9, MS2-AID*Δ, GFP, sgRNA individually
Procedure: as §1, §2

PSMB5 = test: Installation and validation of bortezomib resistant PSMB5 mutations, cell viability; assay type: cell-based; conditions: mutation knocked into K562 cells at native PSMB5 locus; 20 nM bortezomib, 14 days; compared to controls
Procedure: sgRNAs were designed to target near the location of the installed SNP and 101-nt donor oligos were designed to be centered around the installed mutation. Oligonucleotides with proper overhangs were ordered from IDT and annealed before ligation into BbsI digested pGH020, a hu6 driven sgRNA expression vector. All plasmids were verified by Sanger sequencing.
K562 cells expressing Cas9 were electroporated with 5 μg of sgRNA expressing vector and 100 picomoles of donor oligo. Cells were grown for 6 days before 300,000 cells were placed under selection with 20 nM bortezomib for 14 days. The viability of the cells was measured by flow cytometry using a live cell gate (FSC/SSC). After selection, 750,000 cells were harvested and genomic DNA was extracted using the QiaAmp DNA Mini Kit (Qiagen). The PSMB5 exonic locus containing the mutation was PCR amplified, gel purified, and ligated into the pCR-Blunt vector using the Zero-Blunt cloning kit (Life Technologies). 8-15 colonies were Sanger sequenced for each sample.
Eight of these mutations were functionally validated by knocking each one into the genome separately at the native PSMB5 locus using active Cas9 cutting followed by HDR mediated by a DNA donor oligo (26, 27). To control for the effect of Cas9 cutting and HDR, a synonymous mutation not identified in our screen was knocked into each exon. Cas9 expressing K562 cells were electroporated with donor oligo and sgRNA and incubated for six days followed by subsequent selection with bortezomib. After 14 days, the viability of the cells was measured (FIG. 12). […] For the most resistant mutations, the PSMB5 locus was sequenced following bortezomib selection and the presence of the expected mutation was verified in the majority of non-frameshifted sequences (FIG. 13). Together, these experiments indicate that the technology provided herein selectively mutagenized an endogenously expressed protein target, identifying known and novel mutants that confer drug resistance.

Molecule	protection against bortezomib-induced cell death (viability) (PSMB5)	other results
sgGFP.10: sgRNA targeting GFP, sequence CGTCGCCGTCCAGCTCGACC (SEQ ID NO: 38) (chemistry not given here)	–	cells with mutations at both loci (neither GFP nor mCherry) (GFP and mCherry): 0.26%; GFP low population (GFP): ~15%
sgmCherry.1: sgRNA targeting mCherry, sequence GCGGTCTGGGTGCCCTCGTA (SEQ ID NO: 81) (listed as DNA, chemistry not fully specified)	–	cells with mutations at both loci (neither GFP nor mCherry) (GFP and mCherry): 0.30%; mCherry low population (mCherry): ~15%
B1	strongly protective	–
B2	more modest protection	–
B3	more modest protection	–
B4	strongly protective	–
B5	strongly protective	–
